According to paper PMC11696143, “A higher order PUF complex is central to regulation of C. elegans germline stem cells” (Nature Communications, 2024):
Changes are numbered by the printed parent chain. Numbers in names are those of the source. Where “and” joins values, the source holds several entries; their conditions need not be identical. Identical values can stand only once.

T1: C. elegans FBF-2 RBD+CT (residues 164-632) (C. elegans, UniProt Q09312 164-632)
T1 sequence (looked up): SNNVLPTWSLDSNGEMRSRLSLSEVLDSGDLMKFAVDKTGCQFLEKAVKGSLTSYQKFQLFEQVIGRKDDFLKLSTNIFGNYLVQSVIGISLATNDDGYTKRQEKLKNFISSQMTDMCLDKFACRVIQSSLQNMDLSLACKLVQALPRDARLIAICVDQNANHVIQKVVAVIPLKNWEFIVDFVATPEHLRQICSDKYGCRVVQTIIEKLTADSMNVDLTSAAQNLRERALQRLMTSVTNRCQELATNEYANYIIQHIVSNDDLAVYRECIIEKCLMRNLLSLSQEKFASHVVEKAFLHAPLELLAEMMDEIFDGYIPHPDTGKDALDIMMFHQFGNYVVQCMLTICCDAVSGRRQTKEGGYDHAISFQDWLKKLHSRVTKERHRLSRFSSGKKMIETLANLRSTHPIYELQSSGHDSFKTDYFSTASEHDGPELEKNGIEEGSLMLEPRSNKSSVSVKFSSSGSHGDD

T2: C. elegans FBF-2 RBD (residues 164-575) (C. elegans, UniProt Q09312 164-575)
T2 construct: His-SUMO tag cleaved with TEV protease (the insert came from an earlier pGEX6p FBF-2 RBD construct); source: E. coli, purified as FBF-2 RBD+CT (Ni-NTA, heparin, Superdex 75); for SEC-MALS and cryo-EM coexpressed with GST-LST-1 19-98 in E. coli BL21-CodonPlus (DE3)-RIL and purified as a complex; not shown: His6-SUMO, N-terminal, cleaved
T2 sequence (looked up): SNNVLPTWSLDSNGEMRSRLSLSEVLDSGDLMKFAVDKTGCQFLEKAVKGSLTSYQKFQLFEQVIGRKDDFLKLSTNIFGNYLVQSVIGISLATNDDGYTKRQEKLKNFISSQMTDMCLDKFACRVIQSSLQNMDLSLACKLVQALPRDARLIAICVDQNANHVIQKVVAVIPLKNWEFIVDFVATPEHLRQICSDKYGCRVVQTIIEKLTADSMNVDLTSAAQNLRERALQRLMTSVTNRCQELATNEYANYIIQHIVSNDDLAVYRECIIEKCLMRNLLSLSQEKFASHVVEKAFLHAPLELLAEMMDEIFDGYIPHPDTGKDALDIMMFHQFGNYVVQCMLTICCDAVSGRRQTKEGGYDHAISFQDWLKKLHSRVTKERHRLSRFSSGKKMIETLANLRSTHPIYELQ

T3: FBF-2 RBD+CT (Caenorhabditis elegans, UniProt Q09312 164-632)
T3 sequence: T1 sequence (looked up)

T4: FBF-2 RBD (Caenorhabditis elegans, UniProt Q09312 164-575)
T4 sequence: T2 sequence (looked up)

T5: FBF-2 RBD+CT L610A (Caenorhabditis elegans, UniProt Q09312 164-632, L610A)
T5 sequence: T1 sequence (looked up) with L447A

T6: FBF-2 RBD;LST-1 19-98 (Caenorhabditis elegans;Caenorhabditis …, UniProt Q09312;P91820 164-575;19-98, |)
T6 sequence 1: T2 sequence (looked up)
T6 sequence 2: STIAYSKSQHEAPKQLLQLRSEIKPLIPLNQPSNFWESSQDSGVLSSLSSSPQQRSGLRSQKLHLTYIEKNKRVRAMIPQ

T7: FBF-2 RBD+CT;LST-1 19-98 (Caenorhabditis elegans;Caenorhabditis …, UniProt Q09312;P91820 164-632;19-98, |)
T7 sequence 1: T1 sequence (looked up)
T7 sequence 2: T6 sequence 2

T8: LST-1 19-98 (Caenorhabditis elegans, UniProt P91820 19-98)
T8 sequence: T6 sequence 2

T9: FBF-2 RBD;LST-1 19-98 S74C (Caenorhabditis elegans;Caenorhabditis …, UniProt Q09312;P91820 164-575;19-98, |S74C)
T9 sequence 1: T2 sequence (looked up)
T9 sequence 2: T6 sequence 2 with S56C

B1: LST-1 peptide (residues 19-98) spanning PIM-A and PIM-B (domain or fragment, C. elegans, UniProt P91820 19-98, looked up)
chain: T6 sequence 2
notes: LST-1 (lateral signaling target 1), C. elegans, residues 19-98 of the N-terminal intrinsically disordered region; Codon-optimised synthetic cDNA in pSMT3; tag removed with Ulp1; also called LST-1^19–98; source: E. coli BL21-CodonPlus (DE3)-RIL, purified (Ni-NTA, heparin, Ni-NTA pass, Superdex 75)
B2: LST-1^19–98 S74C labeled with Cy5 (domain or fragment, C. elegans, UniProt P91820 19-98, looked up)
chain: T6 sequence 2 with S56C
modifications: Cy5 maleimide dye on C74
notes: LST-1, C. elegans, residues 19-98 with a cysteine in place of S74, five residues upstream of PIM-B; Probably made as the wild-type LST-1 19-98 (His6-SUMO, cleaved); also called C74-labeled LST-1^19–98; source: purified; expression not described for this mutant
B3: LST-1^19–98(A^m): K32A, L35A (domain or fragment, C. elegans, UniProt P91820 19-98, looked up)
chain: T6 sequence 2 with K14A, L17A
notes: LST-1, C. elegans, residues 19-98 with PIM-A mutated; PIM-B intact; also called LST-1 A^m; source: E. coli, purified by the same protocol as the wild-type LST-1 19-98
B4: LST-1^19–98(B^m): K80A, L83A, Y85A (domain or fragment, C. elegans, UniProt P91820 19-98, looked up)
chain: T6 sequence 2 with K62A, L65A, Y67A
notes: LST-1, C. elegans, residues 19-98 with PIM-B mutated; PIM-A intact; also called LST-1 B^m; source: E. coli, purified by the same protocol as the wild-type LST-1 19-98
B5: LST-1^19–98 from the GST fusion coexpressed with FBF-2 (domain or fragment, C. elegans, UniProt P91820 19-98, looked up)
chain: T6 sequence 2
notes: LST-1, C. elegans, residues 19-98; GST removed with TEV protease; also called GST-LST-1^19–98; not shown: GST, N-terminal, cleaved

Legend:
[1] = target: T1, C. elegans FBF-2 RBD+CT (residues …); assay: cell-based or functional assay
[2] = target: T1, C. elegans FBF-2 RBD+CT (residues …); assay: ITC; LST-1 variant (100-400 µM) titrated from the syringe into the cell with FBF-2 (10-30 µM); 20 °C; 20 mM HEPES pH 7.4, 150 mM NaCl, 0.5 mM TCEP; no RNA; one-site model; apparent constants; two technical replicates; details: both partners purified
[3] = target: T2, C. elegans FBF-2 RBD (residues 164-575); assay: as above; details: both partners purified
[4] = target: T2, C. elegans FBF-2 RBD (residues 164-575); assay: FRET or BRET; 2 µM unlabeled FBF-2 RBD pre-incubated with Cy5-labeled LST-1 19-98 (20, 40, 80 nM), then 20 nM 5'-Cy3 gld-1 FBEa-FBEa* RNA; room temperature; FRET from Cy3 on the RNA to Cy5 on LST-1; details: both partners purified
[5] = target: T1, C. elegans FBF-2 RBD+CT (residues …); assay: SEC-MALS; co-purified FBF-2 RBD+CT or RBD/LST-1 19-98 complex (~30 µM) with 29-nt gld-1 FBEa-FBEa* RNA on Superdex-200 10/300 GL; 20 mM HEPES pH 7.4, 150 mM NaCl, 2 mM DTT; details: both partners purified
[6] = target: T2, C. elegans FBF-2 RBD (residues 164-575); assay: as above; details: both partners purified
FBF-2 RBD+CT [7] = target: T3, FBF-2 RBD+CT; assay: EMSA; apparent Kd, Hill fit; EMSA: 5 nM RNA, 10 mM HEPES pH 7.4, 75 mM NaCl, 0.01% Tween 20, 0.1 mg/ml BSA, 0.1 mg/ml yeast tRNA, 2 mM DTT, 4 C overnight; details: protein: recombinant; tags: His6-SUMO, removed by Ulp1; label: 3'-Cy5
FBF-2 RBD [8] = target: T4, FBF-2 RBD; assay: as above; details: protein: recombinant; tags: His-SUMO, removed by TEV; label: 3'-Cy5
FBF-2 RBD+CT L610A = target: T5, FBF-2 RBD+CT L610A; assay: as above; details: protein: recombinant; label: 3'-Cy5
FBF-2 RBD;LST-1 19-98 = target: T6, FBF-2 RBD;LST-1 19-98; assay: EMSA; 10 uM LST-1 19-98; apparent Kd; EMSA: 5 nM RNA, 10 mM HEPES pH 7.4, 75 mM NaCl, 0.01% Tween 20, 0.1 mg/ml BSA, 0.1 mg/ml yeast tRNA, 2 mM DTT, 4 C overnight; details: protein: recombinant;recombinant; tags: His-SUMO, removed by TEV;His6-SUMO removed by Ulp1; GST removed by TEV when coexpressed; chain copies: 2;1; label: 3'-Cy5
FBF-2 RBD+CT;LST-1 19-98 = target: T7, FBF-2 RBD+CT;LST-1 19-98; assay: as above; details: protein: recombinant;recombinant; tags: His6-SUMO, removed by Ulp1;His6-SUMO removed by Ulp1; GST removed by TEV when coexpressed; chain copies: 2;1; label: 3'-Cy5
LST-1 19-98 = target: T8, LST-1 19-98; assay: EMSA; 10 uM LST-1 19-98; nonspecific intermediate band, seen with FBF-2 present; EMSA: 5 nM RNA, 10 mM HEPES pH 7.4, 75 mM NaCl, 0.01% Tween 20, 0.1 mg/ml BSA, 0.1 mg/ml yeast tRNA, 2 mM DTT, 4 C overnight; details: protein: recombinant; tags: His6-SUMO removed by Ulp1; GST removed by TEV when coexpressed; label: 3'-Cy5
FBF-2 RBD+CT [9] = target: T3, FBF-2 RBD+CT; assay: EMSA; up to 5 uM FBF-2; EMSA: 5 nM RNA, 10 mM HEPES pH 7.4, 75 mM NaCl, 0.01% Tween 20, 0.1 mg/ml BSA, 0.1 mg/ml yeast tRNA, 2 mM DTT, 4 C overnight; details: protein: recombinant; tags: His6-SUMO, removed by Ulp1; label: 3'-Cy5
FBF-2 RBD [10] = target: T4, FBF-2 RBD; assay: X-ray crystallography; 2.2 A; EMSA: 5 nM RNA, 10 mM HEPES pH 7.4, 75 mM NaCl, 0.01% Tween 20, 0.1 mg/ml BSA, 0.1 mg/ml yeast tRNA, 2 mM DTT, 4 C overnight; details: protein: recombinant; tags: His-SUMO, removed by TEV
[11] = target: T9, FBF-2 RBD;LST-1 19-98 S74C; assay: FRET; 2 uM FBF-2 RBD; higher FRET than S26C; EMSA: 5 nM RNA, 10 mM HEPES pH 7.4, 75 mM NaCl, 0.01% Tween 20, 0.1 mg/ml BSA, 0.1 mg/ml yeast tRNA, 2 mM DTT, 4 C overnight; details: protein: recombinant;recombinant; tags: His-SUMO, removed by TEV;Cy5-maleimide on C74; chain copies: 2;1; label: 5'-Cy3

Binder	Kd [2]	dH [2]	stoichiometry N [2]	Kd [3]	dH [3]	stoichiometry N [3]	further results
B1	1100 nM and 1900 nM	-14.8 kcal/mol and -10.8 kcal/mol	0.5 sites and 0.57 sites	480 nM and 520 nM	-33.2 kcal/mol and -37.5 kcal/mol	0.46 sites	EMSA: RNA-binding affinity of FBF-2 RBD+CT for the 29-nt FBEa-FBEa* RNA with 10 µM LST-1 19-98 against without LST-1 [1]: 4 fold
B2							binding result [4]: binds
B3	3700 nM and 2800 nM	-11.4 kcal/mol and -11.5 kcal/mol	1.02 sites and 0.98 sites	130 nM and 120 nM	-15.3 kcal/mol and -16.5 kcal/mol	1.15 sites and 1.05 sites	
B4	24100 nM and 46200 nM	-11.1 kcal/mol and -11.5 kcal/mol	1.06 sites and 0.89 sites	1460 nM and 1540 nM	-12.1 kcal/mol and -12.5 kcal/mol	0.83 sites and 0.86 sites	
B5							stoichiometry N [5]: 2 FBF-2 per LST-1; stoichiometry N [6]: 2 FBF-2 per LST-1
AUCAUGUGCCAUACAUCAUGUUGCCAUUU (ssRNA) [gld-1 FBEa-FBEa* (EMSA)]							Kd (FBF-2 RBD+CT [7]): 435 ± 25 nM; Kd (FBF-2 RBD [8]): 131 ± 10 nM; Kd (FBF-2 RBD+CT L610A): 80 ± 11 nM; Kd (FBF-2 RBD;LST-1 19-98): 107 ± 3 nM; Kd (FBF-2 RBD+CT;LST-1 19-98): 109 ± 2 nM; binding result (LST-1 19-98): binds
AUCAUGUGCCAUACAUCAACAUGCCAUUU (ssRNA) [FBEa-FBEa*m]							Kd (FBF-2 RBD+CT [7]): 1190 ± 9 nM; Kd (FBF-2 RBD [8]): 145 ± 4 nM
AUCAACAGCCAUACAUCAACAUGCCAUUU (ssRNA) [FBEam-FBEa*m]							binding result (FBF-2 RBD+CT [9]): no binding
CAUGUUGCCAU (ssRNA) [gld-1 FBEa* 11-nt (crystal)]							binding result (FBF-2 RBD [10]): binds
AUCAUGUGCCAUACAUCAUGUUGCCAUUU (ssRNA) [gld-1 FBEa-FBEa* (FRET)]							binding result [11]: binds
